Experimental data published in IntAct's records for PubMed 20133701.

Target: T1, rara_human RARA (UniProt P10276)
T1 sequence: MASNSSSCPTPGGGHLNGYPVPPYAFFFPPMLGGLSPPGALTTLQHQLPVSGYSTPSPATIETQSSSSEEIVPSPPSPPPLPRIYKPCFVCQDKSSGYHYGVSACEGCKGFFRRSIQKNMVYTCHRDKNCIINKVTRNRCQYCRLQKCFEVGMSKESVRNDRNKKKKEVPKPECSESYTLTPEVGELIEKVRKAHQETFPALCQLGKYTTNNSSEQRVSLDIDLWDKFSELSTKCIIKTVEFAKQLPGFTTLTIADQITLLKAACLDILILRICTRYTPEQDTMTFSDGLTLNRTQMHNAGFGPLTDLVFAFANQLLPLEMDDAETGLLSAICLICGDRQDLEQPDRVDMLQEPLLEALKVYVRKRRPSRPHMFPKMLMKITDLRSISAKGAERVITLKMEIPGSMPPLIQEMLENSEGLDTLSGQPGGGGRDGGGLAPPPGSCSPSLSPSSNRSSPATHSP

Substance: LIM domain-containing protein ajuba (Mus musculus) (from UniProt Q91XC0) L292A;L293A;L295A;L418A;I419A;L420A;I488A;V489A;V491A
- effect of a mutation on the interaction: disrupting interaction strength
